The series concerns the target T1, GST-LuxR (Vibrio harveyi, UniProt P21308 1-205).
T1 sequence: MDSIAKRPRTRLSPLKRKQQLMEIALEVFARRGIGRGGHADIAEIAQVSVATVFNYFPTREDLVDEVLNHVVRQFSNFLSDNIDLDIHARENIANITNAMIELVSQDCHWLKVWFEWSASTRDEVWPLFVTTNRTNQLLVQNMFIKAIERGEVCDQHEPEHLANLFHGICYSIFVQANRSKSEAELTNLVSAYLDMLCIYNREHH
Description: fluorescence anisotropy; no thiophenone; Kd value only in Figure 4B; 30°C; annealing in NaCl-Tris-EDTA buffer; binding buffer, salt and pH not stated (as in ref 37); ex 480 nm, em 535 nm. The conditions noted are these: protein: recombinant; chain copies: 2; label: 5'-fluorescein on strand 1; blunt. A general note: Polarisation of emitted light reports the rotation of a fluorescent probe.

The results in this text go back to PMC3404956, “A Quorum Sensing-Disrupting Brominated Thiophenone with a Promising Therapeutic Potential to Treat Luminescent Vibriosis”.

B1: V. harveyi consensus LuxR binding sequence (dsDNA)
DNA 1: TATTGATAAATTTATCAATAA
DNA 2: TTATTGATAAATTTATCAATA
Take B1: the binding result is listed as “binds”.
